From the supplement of paper PMC11246515
± gives the standard deviation of the averaged measurements.

Experiment: total protein half-life in vivo (active degradation + dilution); higher = more stable protein
[1] = E. coli NCM3722 delta-clpP delta-lon delta-hslV, growth: N-lim chemostat, doubling time 6 h
[2] = E. coli NCM3722 delta-clpP, growth: N-lim chemostat, doubling time 6 h
[3] = E. coli NCM3722 delta-hslV, growth: N-lim chemostat, doubling time 6 h
[4] = E. coli NCM3722 delta-lon, growth: N-lim chemostat, doubling time 6 h
[5] = E. coli NCM3722 delta-smpB, growth: N-lim chemostat, doubling time 6 h
[6] = wild type E. coli NCM3722, growth: C-lim chemostat, doubling time 3 h
[7] = wild type E. coli NCM3722, growth: C-lim chemostat, doubling time 6 h
[8] = wild type E. coli NCM3722, growth: C-lim chemostat, doubling time 12 h
[9] = wild type E. coli NCM3722, growth: N-lim chemostat, doubling time 6 h
[10] = wild type E. coli NCM3722, growth: P-lim chemostat, doubling time 6 h
[11] = wild type E. coli NCM3722, growth: P-lim chemostat, doubling time 12 h
[12] = wild type E. coli NCM3722, growth: N-lim chemostat, doubling time 12 h

Row | Sequence | total protein half-life in vivo [1] | total protein half-life in vivo [2] | total protein half-life in vivo [3] | total protein half-life in vivo [4] | total protein half-life in vivo [5] | total protein half-life in vivo [6] | total protein half-life in vivo [7] | total protein half-life in vivo [8] | total protein half-life in vivo [9] | total protein half-life in vivo [10] | total protein half-life in vivo [11] | total protein half-life in vivo [12]
1 | MNSRQQTILQMVIDQGQVSVTDLAKATGVSEVTIRQDLNTLEKLSYLRRAHGFAVSLDSDDVETRMMSNYTLKRELAEFAASLVQPGETIFIENGSSNALLARTLGEQKKNVTIITVSSYIAHLLKDAPCEVILLGGVYQKKSESMVGPLTRQCIQQVHFSKAFIGIDGWQPETGFTGRDMMRTDVVNAVLEKECEAIVLTDSSKFGAVHSYSIGPVERFNRVITDSKIRASDLMHLEHSKLTIHVVDI | 6.45 ± 1.4 h | 6.46 ± 0.62 h | 6.54 ± 0.67 h | 6.01 ± 0.45 h | 5.76 ± 0.27 h | 2.87 ± 0.21 h | 5.51 ± 0.27 h | 11.6 ± 0.87 h | 5.91 ± 0.31 h | 5.57 ± 0.19 h | 13.3 ± 0.69 h | 
2 | MKTSDNERIKYEITGQAVLQILRMKINFSLQTLIKQLLVMKSAEEDAFRRDLIDSIIRDFSNSDSGGPNRRTATADNKSMFNGKKINRIH |  |  |  |  |  |  |  |  |  |  | 3.79 h | 
3 | MPLPDFHVSEPFTLGIELEMQVVNPPGYDLSQDSSMLIDAVKNKITAGEVKHDITESMLELATDVCRDINQAAGQFSAMQKVVLQAATDHHLEICGGGTHPFQKWQRQEVCDNERYQRTLENFGYLIQQATVFGQHVHVGCASGDDAIYLLHGLSRFVPHFIALSAASPYMQGTDTRFASSRPNIFSAFPDNGPMPWVSNWQQFEALFRCLSYTTMIDSIKDLHWDIRPSPHFGTVEVRVMDTPLTLSHAVNMAGLIQATAHWLLTERPFKHQEKDYLLYKFNRFQACRYGLEGVITDPHTGDRRPLTEDTLRLLEKIAPSAHKIGASSAIEALHRQVVSGLNEAQLMRDFVADGGSLIGLVKKHCEIWAGD | 4.72 ± 0.45 h | 4.3 ± 0.47 h | 4.35 ± 0.24 h | 4.85 ± 0.29 h | 4.73 h |  |  | 9.5 ± 0.29 h | 4.59 h | 6.17 ± 1 h | 11.6 ± 0.85 h | 9.74 h
4 | MSRTIFCTFLQREAEGQDFQLYPGELGKRIYNEISKEAWAQWQHKQTMLINEKKLNMMNAEHRKLLEQEMVNFLFEGKEVHIEGYTPEDKK [P0A8P3] | 6.2 ± 0.24 h | 4.957 ± 0.0071 h | 4.94 ± 1.4 h | 5.01 ± 0.2 h | 3.99 ± 0.37 h | 3.07 ± 0.31 h | 5.14 ± 0.14 h | 8.58 ± 1.5 h | 3.63 ± 0.074 h | 5.7 h | 9.27 ± 1.4 h | 6.39 ± 0.51 h
5 | MAYSIGIDSGSTATKGILLADGVITRRFLVPTPFRPATAITEAWETLREGLETTPFLTLTGYGRQLVDFADKQVTEISCHGLGARFLAPATRAVIDIGGQDSKVIQLDDDGNLCDFLMNDKCAAGTGRFLEVISRTLGTSVEQLDSITENVTPHAITSMCTVFAESEAISLRSAGVAPEAILAGVINAMARRSANFIARLSCEAPILFTGGVSHCQKFARMLESHLRMPVNTHPDAQFAGAIGAAVIGQRVRTRR | 4.12 h | 4.27 h |  |  |  | 2.01 ± 0.18 h | 3.66 ± 0.33 h | 6.35 ± 0.44 h |  |  |  | 
6 | MHRQSFFLVPLICLSSALWAAPATVNVEVLQDKLDHPWALAFLPDNHGMLITLRGGELRHWQAGKGLSAPLSGVPDVWAHGQGGLLDVVLAPDFAQSRRIWLSYSEVGDDGKAGTAVGYGRLSDDLSKVTDFRTVFRQMPKLSTGNHFGGRLVFDGKGYLFIALGENNQRPTAQDLDKLQGKLVRLTDQGEIPDDNPFIKESGARAEIWSYGIRNPQGMAMNPWSNALWLNEHGPRGGDEINIPQKGKNYGWPLATWGINYSGFKIPEAKGEIVAGTEQPVFYWKDSPAVSGMAFYNSDKFPQWQQKLFIGALKDKDVIVMSVNGDKVTEDGRILTDRGQRIRDVRTGPDGYLYVLTDESSGELLKVSPRN | 1.95 ± 0.037 h | 2.22 ± 1.1 h | 1.44 ± 0.036 h |  | 1.43 ± 0.033 h | 1.63 ± 0.43 h | 4.09 h | 5.83 ± 1.6 h | 2.13 h |  | 6.77 h | 
